In patent publication US20060015973, “Environmental stress-tolerant plants” (Independent Admin. Institute, Japan International Research …, published 2006):
Positions count from the first letter of the chain named.

How the values were obtained:
[1] = molecular target: T1, GST-DREB1A (fragment encoded by cDNA nt 119-547) (Arabidopsis thaliana, UniProt Q9M0L0 SEQ:1-143); assay: EMSA; room temperature 20 min; 6% gel 0.25x TBE; conditions: tags: N-terminal GST (pGEX-4T-1), E. coli JM109; label: 32P
Procedure: (§1) E. coli in which the fusion protein had been induced was suspended in 13 ml of buffer (10 mM Tris-HCl, 0.1 mM DTT, 0.1 mM phenylmethylsulfonyl fluoride). Then, 1% Triton X-100 and 1 mM EDTA were added thereto. After the cells were disrupted by sonication, the disrupted material was centrifuged at 22,000×g for 20 min. Then, the fusion protein of DREB1A (or DREB2A) and GST was purified by affinity chromatography using glutathione-Sepharose (Pharmacia) as a carrier. The resultant fusion protein was incubated with the DRE-containing 71 bp DNA fragment probe prepared by PCR and radiolabelled with ³²P at room temperature for 20 min. This mixture was electrophoresed using 6% acryl amide gel containing 0.25× Tris-borate-EDTA at 100 V for 2 hr. […] As is clear from this Figure, a band which migrated behind was detected when the fusion protein was incubated with the DRE-containing 71 bp DNA fragment probe (SEQ ID NO: 18). When a DNA fragment containing a varied DRE sequence (SEQ ID NO: 19, 20 or 21) was used, such a band was not detected. On the other hand, when a DNA fragment which was partly varied outside of DRE sequence (SEQ ID NO: 22 or 23) was used as a probe, a behind band was detected. Thus, it was shown that DREB1A or DREB2A protein specifically bound to DRE sequence.

[2] = molecular target: T2, GST-DREB2A (fragment encoded by cDNA nt 167-666) (Arabidopsis thaliana, UniProt O82132 SEQ:1-166); assay: EMSA; room temperature 20 min; 6% gel 0.25x TBE; conditions: tags: N-terminal GST (pGEX-4T-1), E. coli JM109; label: 32P
T2 sequence (O82132 1-166): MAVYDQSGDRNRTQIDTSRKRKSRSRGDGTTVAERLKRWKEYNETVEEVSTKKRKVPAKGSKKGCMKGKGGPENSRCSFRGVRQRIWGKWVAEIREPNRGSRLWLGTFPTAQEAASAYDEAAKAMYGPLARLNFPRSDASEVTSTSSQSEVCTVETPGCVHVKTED
Procedure: as §1

[3] = molecular target: T1, GST-DREB1A (fragment encoded by cDNA nt …); assay: EMSA; shifted band; conditions: tags: N-terminal GST (pGEX-4T-1), E. coli JM109; label: 32P
Procedure: as §1

[4] = molecular target: T2, GST-DREB2A (fragment encoded by cDNA nt …); assay: EMSA; shifted band; conditions: tags: N-terminal GST (pGEX-4T-1), E. coli JM109; label: 32P
Procedure: as §1

[5] = molecular target: DREB2A delta136-165 (constitutive active form) (Arabidopsis thaliana, UniProt O82132 SEQ:1-335, del136-165); assay: cell_activity; GUS transactivation vs basal, T87 protoplasts; >3x full length
DREB2A delta136-165 (constitutive active form), sequence (O82132 other isoform, or with tags, fused parts or gaps del136-165 | mutant): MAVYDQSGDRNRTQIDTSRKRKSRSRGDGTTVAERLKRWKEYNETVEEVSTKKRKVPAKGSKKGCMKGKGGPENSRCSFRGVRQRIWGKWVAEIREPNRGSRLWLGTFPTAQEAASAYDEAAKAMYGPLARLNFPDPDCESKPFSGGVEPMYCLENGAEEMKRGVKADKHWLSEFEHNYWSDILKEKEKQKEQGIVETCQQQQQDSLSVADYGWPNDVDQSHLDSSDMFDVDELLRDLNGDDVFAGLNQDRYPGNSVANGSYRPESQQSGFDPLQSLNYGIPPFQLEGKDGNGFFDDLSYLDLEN
Procedure: Isolation of Arabidopsis T87 cell protoplasts and polyethylene glycol-mediated DNA transfection were performed as described previously (Abel and Theologis, 1994 Plant J. 5, 421-427). Five-day-old Arabidopsis T87 suspension cultured cells were collected by filtration and washed with water. Five grams of T87 cells were incubated with enzyme solution (0.4M mannitol, 5 mM MES-KOH (pH 5.7), 8 mM CaCl₂, 1% [w/v] Cellulase ONOZUKA R10 (Yakult), 0.5% [w/v] Macerozyme R10 (Yakult)) at room temperature for 2 hours with gentle agitation. Cells were passed through 125 μm nylon mesh, recovered by centrifugation at 450 g for 5 minutes at room temperature and washed twice in 30 ml of […], 70 mM CaCl₂, and 5 mM MES-KOH (pH 5.7). Finally protoplasts were resuspended in MaMg solution (0.4 M mannitol, 15 mM MgCl₂, 5 mM MES-KOH (pH 5.7)) and concentration was adjusted to 3×10⁶ cell/ml. The isolated protoplasts were kept on ice until use. Plasmid DNAs used for protoplast transformation were prepared by using a QINGEN plasmid isolation kit (QIAGEN) and dissolved in 10 mM Tris-HCl (pH 8.0), and 1 mM EDTA at 1 μg/μL. One hundred μL of protoplast suspension was mixed well with 10 μL of effector plasmid, 10 μL of reporter plasmid and 5 μL of 35S:Luciferase internal control plasmid. […]

[6] = molecular target: T1, GST-DREB1A (fragment encoded by cDNA nt …); assay: EMSA; no shifted band; conditions: tags: N-terminal GST (pGEX-4T-1), E. coli JM109; label: 32P
Procedure: as §1

[7] = molecular target: T2, GST-DREB2A (fragment encoded by cDNA nt …); assay: EMSA; no shifted band; conditions: tags: N-terminal GST (pGEX-4T-1), E. coli JM109; label: 32P
Procedure: as §1

T1 sequence (Q9M0L0 1-143): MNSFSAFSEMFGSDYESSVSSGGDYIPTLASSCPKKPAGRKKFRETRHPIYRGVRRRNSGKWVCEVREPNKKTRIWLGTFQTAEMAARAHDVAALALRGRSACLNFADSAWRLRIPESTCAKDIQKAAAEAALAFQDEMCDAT

B1: rd29A promoter 71 bp DRE probe (wild type) (dsDNA)
DNA 1: CAGTTTGAAAGAAAAGGGAAAAAAAGAAAAAATAAATAAAAGATATACTACCGACATGAGTTCCAAAAAGC
DNA 2: GCTTTTTGGAACTCATGTCGGTAGTATATCTTTTATTTATTTTTTCTTTTTTTCCCTTTTCTTTCAAACTG
B1: binds [1]; binds [2].

B2: 71 bp probe, mutated outside DRE (SEQ 22) (dsDNA)
DNA 1: B1 DNA 1 with G60T, T61C, T62A, C63A
DNA 2: B1 DNA 2 with G9T, A10T, A11G, C12A
B2: binds [3]; binds [4].

B3: 71 bp probe, mutated outside DRE (SEQ 23) (dsDNA)
DNA 1: B1 DNA 1 with C64G, A65G, A66T, A67T
DNA 2: B1 DNA 2 with T5A, T6A, T7C, G8C
B3: binds [3]; binds [4].

B4: DRE-containing 71 bp rd29A region in GUS reporter (3 tandem copies) (dsDNA)
DNA 1: B1 DNA 1
DNA 2: B1 DNA 2
In the case of B4, the activity [5] is reported as over 30 fold.

B5: 71 bp probe, DRE mutant (SEQ 19) (dsDNA)
DNA 1: B1 DNA 1 with C48T, A50T, C51T
DNA 2: B1 DNA 2 with G21A, T22A, G24A
B5: no binding [6]; no binding [7].

B6: 71 bp probe, DRE mutant (SEQ 20) (dsDNA)
DNA 1: B1 DNA 1 with C52T, G53T, A54T, C55T
DNA 2: B1 DNA 2 with G17A, T18A, C19A, G20A
B6: no binding [6]; no binding [7].

B7: 71 bp probe, DRE mutant (SEQ 21) (dsDNA)
DNA 1: B1 DNA 1 with T57A, G58A
DNA 2: B1 DNA 2 with C14T, A15T
B7: no binding [6]; no binding [7].
